Laboratory results reported in US20260042834A1 (HBM ALPHA THERAPEUTICS, published 2026).
Residue numbers refer to the chain shown, from its start. Where “and” joins values, the source holds several entries; their conditions need not be identical. Equal values may be shown once.

T1: human UCN3 peptide (human, UniProt Q969E3 120-157, not fully specified; biotin at N- or C-terminus in the ELISA)
T1 construct: also called hUCN3; hUCN3 (NT Biotin)
T1 peptide (looked up): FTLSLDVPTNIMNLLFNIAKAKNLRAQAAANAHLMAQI

T2: biotinylated CRH (human and mouse, not fully specified; biotinylated, position not stated)
T2 construct: also called Biotin-CRH; biotin-labeled CRH
T2 peptide: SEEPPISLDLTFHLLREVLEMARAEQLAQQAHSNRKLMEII

T3: corticotropin-releasing hormone (CRH) peptide (human and mouse, not fully specified)
T3 peptide: T2 peptide

T4: human UCN1 peptide (human, UniProt P55089 83-122)
T4 peptide (looked up): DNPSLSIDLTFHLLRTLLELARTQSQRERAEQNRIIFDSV

T5: corticotropin-releasing hormone (CRH) peptide (human and mouse (same sequence), not fully specified)
T5 peptide: T2 peptide

T6: CRH (CT Biotin) (human and mouse, C-terminal K-Biotin)
T6 construct: also called Peptide 4 (CRH-Biotin)
T6 peptide: T2 peptide

T7: CRH (NT Biotin) (human and mouse, not fully specified; biotin at the N-terminus)
T7 peptide: T2 peptide

T8: hUCN1 (CT Biotin) (human, UniProt P55089 83-122, biotin at the C-terminus)
T8 construct: also called human UCN1 (CT biotin)
T8 peptide (looked up): T4 peptide (looked up)

T9: hUCN1 (NT Biotin) (human, UniProt P55089 83-122, biotin at the N-terminus)
T9 construct: also called human UCN1 (NT biotin)
T9 peptide (looked up): T4 peptide (looked up)

T10: human UCN2 peptide (human, UniProt Q96RP3 72-109, limits assumed, not fully specified; biotin at N- or C-terminus in the ELISA)
T10 construct: also called hUCN2; hUCN2 (NT Biotin)
T10 peptide (looked up): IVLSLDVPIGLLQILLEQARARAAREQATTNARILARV

B1: PR302064 (antibody, human IgG1, kappa, V domains shown)
VH: EMQLVESGGGLVKPGGSLRLSCAASGFTFSNYWMNWVRQAPGKGLEWVAEIRLKSNNYATHYAESVKGRFTISRDDSKSTVYLQMNSLKTEDTAVYYCTVGTLVYWGQGTLVTVSS
VL: DIVLTQSPDSLAVSLGERATINCRASQSVSTSTYNYMHWFQQKPGQPPKLLIKFASNLESGVPDRFSGSGSGTDFTLTISSLQAEDTAVYYCQHSWEIPYTFGQGTKLEIKR
notes: Humanized variant of PR301777; human IgG1-WT-Fc
B2: PR302341-34 (antibody, human IgG1, kappa, V domains shown)
VH: QVQLVQSGAEVKKPGASVKVSCKASGYTFTDYFMKWVRQAPGQGLEWMGVINPNQGDIFYNQKFKGRVTMTVDKSISTAYMELSRLRSDDTAVYYCARGTDRALFAYWGQGTLVTVSS
VL: DVVMTQSPLSLPVTLGQPASISCRSGQSIVHSDANTYLEWYQQRPGQSPRLLIYKVSNRFSGVPDRFSGSGSGTDFTLKISRVEAEDLGVYYCFQGSHIPWTFGGGTKVEIKR
notes: Humanized, PTM-removed variant of PR302341
B3: PR302309-8 (antibody, human IgG1, kappa, V domains shown)
VH: QIQLVQSGSELKKPGASVKVSCKASGYTFTNYGMNWVRQAPGQGLEWMGWINTYTGEPIYTDDFKGRFVFSLDTSVSTAYLQISSLKAEDTAVYYCSRSTMITTGGVFAYWGQGTLVTVSS
VL: B2 VL with G26S, S28T, A34G, I99V
notes: Humanized variant of PR302309
B4: PR302341-48 (antibody, human IgG1, kappa, V domains shown)
VH: B2 VH with I76T, R85S, D89E
VL: B2 VL with S7T, L11S, S48P, S72A
notes: as for B2
B5: PR302309-11 (antibody, human IgG1, kappa, V domains shown)
VH: B3 VH
VL: DIVMTQTPLSSPVTLGQPASISCRSSQTIVHSDGNTYLEWLQQRPGQPPRLLIYKVSNRFSGVPDRFSGSGAGTDFTLKISRVEAEDVGVYYCFQGSHVPWTFGGGTKVEIKR
notes: Humanized variant of PR302309
B6: PR302341-60 (antibody, human IgG1, kappa, V domains shown)
VH: B2 VH with G44R, M70I, V72R, K74T, I76A, R85S, D89E
VL: B2 VL
notes: as for B2
B7: PR302341-28 (antibody, human IgG1, kappa, V domains shown)
VH: B2 VH
VL: B2 VL with A34G
notes: as for B2
B8: PR303394 (antibody, human IgG1, kappa, V domains shown)
VH: EVQLQQSGPELVKPGVSMKISCKASGYSFTDSTMNWVKQSHGKNLEWIGLIHPDNGGTIYNQKFKGKATLTVHKSSSTAYMELLSLTSEDSAVYYCANGFAYWGQGTLVTVSA
VL: DVVMTQTPLSLPVSLGDQASISCRSSQSLLHSNGNTYLHWYLQKPGQSPELLIYKVSNRFSGVPDRFSGSGSGTDFTLKISRVEAEDLGVYFCSQSTHVPLTFGAGTKLELKR
notes: also called analog of CTRND05
B9: PR004290 (antibody, human IgG1, kappa, V domains shown)
VH: EVQLVESGGVLVQPGGSLRLSCAASGFTFSSYWMTWVRQAPGKGLEWVANIKQDGSEKYYVDSVKGRFTISRDNAKNSLFLQMNSLRAEDTAVYYCARTLIFDYWGQGTLVTVSS
VL: DIVMTQSPLSLPVTPGEPASISCRSSQSLLHSTGYNSLEWYLQKPGQSPQLLIYLGSNRASGVPDRFSGSGSGTDFTLKISRVEAEDVGIYYCMQTLQTPITFGQGTRLEIKR
notes: Series 1; human IgG1 wildtype Fc; also called hybridoma clone 28b3
B10: PR005660 (antibody, human IgG1, kappa, V domains shown)
VH: B9 VH with D54E
VL: B9 VL with N36Q
notes: ΔPTM variant of PR004290
B11: PR302341-34 (antibody, human IgG1, kappa, V domains shown)
VH: B2 VH
VL: B2 VL
notes: as for B2
B12: PR302341-48 (antibody, human IgG1, kappa, V domains shown)
VH: B2 VH with I76T, R85S, D89E
VL: B2 VL with S7T, L11S, S48P, S72A
notes: as for B2
B13: PR302341-28 (antibody, human IgG1, kappa, V domains shown)
VH: B2 VH
VL: B2 VL with A34G
notes: as for B2
B14: PR004290 (antibody, human IgG1, kappa, V domains shown)
VH: B9 VH
VL: B9 VL
notes: Series 1; human IgG1 wildtype Fc; also called Hybridoma Clone 28b3
B15: PR006669 (antibody, human IgG1, kappa, V domains shown)
VH: EVQLVESGGGLVQPGGSLRLSCAASGFTFSDNWMSWVRQAPGKGLEWVANIKQDGSENYYVDSVKGRFTISRDNAKNSLYLQMNSLRAEDTAVYYCSRGLALWGWGQGTLVTVSS
VL: B9 VL with Q6H, E17D, S37Y, E39D, I80F, S81I, I90V, T96A, I101Y, R108K
B16: PR006745 (antibody, human IgG1, kappa, V domains shown)
VH: B15 VH with G55A
VL: B9 VL with Q6H, E17D, S37Y, E39D, I80F, S81I, I90V, T96A, I101Y, R108K
B17: PR006746 (antibody, human IgG1, kappa, V domains shown)
VH: B15 VH with G55S
VL: B9 VL with Q6H, E17D, S37Y, E39D, I80F, S81I, I90V, T96A, I101Y, R108K

Biological target: T1, human UCN3 peptide
Assay: ELISA, biotinylated hUCN3 on streptavidin plates
Protocol: (§1) Streptavidin (Thermo, Cat: 21125) was diluted in PBS with a concentration of 2 μg/mL. 100 μL of diluted streptavidin was added per well to ELISA microplates, and the plates were incubated overnight at 4° C. Plates were blocked with ELISA blocking solution (containing 2% w/v BSA, 0.05% (v/v) Tween-20, pH 7.4 PBS buffer) at 37° C. for 1 hour, and then incubated with either 1 μg/mL hUCN1 (NT Biotin), hUCN1 (CT Biotin), hUCN2 (NT Biotin), hUCN2 (CT Biotin), hUCN3 (NT Biotin), or hUCN3 (CT Biotin) for 1 hour at 37° C. […] 100 μl of TMB Substrate (Biopanda, Cat: TMB-S-003) was added, and the plates were incubated at room temperature for 15 minutes. 100 μL of ELISA stopping solution (Solarbio, Cat #: C1058) was then added to terminate the reaction, and the OD450 nm was determined by an ELISA plate reader (Molecular Devices, Spectra max 384 plus).

Binder | binding result
B1 | no binding (tested: 100 nM)
B2 | no binding (tested: 100 nM)
B3 | no binding (tested: 100 nM)
B4 | no binding (tested: 100 nM)
B5 | no binding (tested: 100 nM)
B6 | no binding (tested: 100 nM)
B7 | no binding (tested: 100 nM)
B8 | no binding (tested: 100 nM)
B9 | no binding (tested: 100 nM)
B10 | no binding (tested: 100 nM)

Biological target: T2, biotinylated CRH
Assay: Octet BLI, biotinylated CRH on SA sensor

Binder | Kd [pM] | koff [s⁻¹] | kon [M⁻¹ s⁻¹]
B11 | < 1 |  | 
B12 | < 1 | < 1e-07 | 1.04e+06
B13 | < 1 | < 1e-07 | 2.63e+06

Biological target: T3, corticotropin-releasing hormone (CRH) …
Assay: cell-based or functional assay

Binder | CHO-CRE-hCRHR1 0.5 nM CRH IC50
B11 | 616 pM
B12 | 507 pM
B13 | 267 pM
B14 | 5410 pM and 3490 pM

Biological target: T4, human UCN1 peptide
Assay: cell-based or functional assay

Binder | CHO-CRE-hCRHR1 1 nM hUCH1 IC50 | hUCN1 IC50/ CRH IC50 [fold]
B11 | 21900 pM and 30000 pM | 
B12 | 30000 pM | 59
B13 | 33000 pM | 124

Biological target: T5, corticotropin-releasing hormone (CRH) …
Assay: cell-based or functional assay

Binder | hCRHR1 Luciferase Reporter Assay IC50 [pM] | mCrhr1 Luciferase Reporter Assay IC50 [pM]
B15 | 7380 | 28900
B16 | 13200 | 76200
B17 | 10000 | 46400

Biological target: T6, CRH (CT Biotin)
Assay: ELISA, biotin peptide on streptavidin plate
Protocol: (§2) Streptavidin (Thermo, Cat: 21125) was diluted in PBS to a concentration of 2 μg/ml. 100 μl of diluted streptavidin was added per well to ELISA microplates, and the plates were incubated overnight at 4° C. […] 100 μL of 3,3′,5,5′-tetramethylbenzidine (TMB) substrate (Biopanda, Cat: TMB-S-003) was added, and the plates were incubated at room temperature for 15 minutes. 100 μL of ELISA stopping solution (Solarbio, Cat #: C1058) was added to terminate the reaction, and the optical density at 450 nm (OD450 nm) was determined by an ELISA plate reader (Molecular Devices, Spectra max 384 plus).

Binder | EC50 [pM]
B11 | 27
B12 | 28
B13 | 37
B14 | 65

Biological target: T7, CRH (NT Biotin)
Assay: ELISA, biotin peptide on streptavidin plate
Protocol: as §2

Binder | EC50
B11 | 25 pM and 38 pM
B12 | 45 pM
B13 | 52 pM
B14 | 50 pM

Biological target: T8, hUCN1 (CT Biotin)
Assay: ELISA, biotin peptide on streptavidin plate
Protocol: as §2

Binder | EC50
B11 | 30 pM and 22 pM
B12 | 23 pM
B13 | 32 pM
B14 | > 1000 pM

Biological target: T9, hUCN1 (NT Biotin)
Assay: ELISA, biotin peptide on streptavidin plate
Protocol: as §2

Binder | EC50
B11 | 19 pM and 16 pM
B12 | 17 pM
B13 | 26 pM
B14 | 1590 pM

Biological target: T10, human UCN2 peptide
Assay: ELISA, biotinylated hUCN2 on streptavidin plates
Protocol: as §1

Binder | binding result
B1 | no binding (tested: 100 nM)
B2 | no binding (tested: 100 nM)
B3 | no binding (tested: 100 nM)
B4 | no binding (tested: 100 nM)
B5 | no binding (tested: 100 nM)
B6 | no binding (tested: 100 nM)
B7 | no binding (tested: 100 nM)
B8 | no binding (tested: 100 nM)
B9 | no binding (tested: 100 nM)
B10 | no binding (tested: 100 nM)

Biological target: T10, human UCN2 peptide
Assay: ELISA on streptavidin-captured hUCN2 (NT biotin) and hUCN2 (CT biotin), mAb at 100 nM and 10 nM; axis labelled RLU, scale 0-4
Protocol: as §1

Binder | binding result
B11 | no binding (tested: 100 nM)
B12 | no binding (tested: 100 nM)
B13 | no binding (tested: 100 nM)
